Test: label from the status in PepcDB records

Protein production, failed:
MLLILAILPIVVTVGLGVFAGLRHQFAPTTSDILIQLVMHYALPLSLFGGILSLKRATIIQNSSVALWLALGMLGGMVIVIVSQCCFHQQLETGTLRALVIASPSIPFMGVSVLLVVFGKISVLLVALGGLYMNLVQVPVSVLLLTLAGGSTPEQRWRAGWQKLCRASRQPVVWAPISAFLLNLAGLRLPSAWLTNFTELGQAAGGVALFALGLLLTTRPWRLTRMVVLNVLLKNLGLPVLIWGIMASLGVSLSNQQLVVLTLAIPTATIATMLAVQNHLAPDEYVATQMLSTVIAPLTMGFLMWGLQLV
MLLLSIYISIAIGISFICSVLEAVLLSISPSYIAQLNQQGHPAAEQLSKLKSDIDRPLASILTLNTIAHTIGAATAGAQAAVVFGSEALGIFSAVLTLAILVLSEIVPKTIGATYWRQLAPAAAVSLRWMVWALTPFVWFSEQITKRLARNHEAPKMRDELSAMAILARESGEFAEGESKILSNLLGIQDVPVTQVMTPRPVVFRVDATMTINEFLDKHKDTPFSRPLVYSEQKDNIIGFVHRLELFKMQQSGSGQKQLGAVMRPIQVVLNNTALPKVFDQMMTHRLQLALVVDEYGTVLGLVTLEDIFEHLVGEEIIDEADKSTDMQELAYQRWESWKEMHGVIESRDDDDEELEKQNVEPETQEPTKPDSKES
MLLTQYEKYKRGFKFDHVWPILKGIEKFANDNMMTPASSPSPGMNSIDLNMDSEDANFSLSSRPMGLKKTKLKQLLEQNDKLIKAITKGTSERNEIQRQKIEVDRMKEENKILFADLNSISDPSSRAYIENERKRILEKRAQTNQHEEDGEGSQYHGSQYRASHYQESPSHGKQVQGEPDQGEDQRSPNNQEDFTQYYNYLSGTENIFP
MLLYIHVPFCRRKCRYCAFHSLPLIGEGGTSPAPEALQTPHADTAITAGPTAASTALAGVAPVTPSAQAISGQDGHTSTKGHGVPPESPPGPTANAAGMSGGIAGIVDRAGGAMRSCTPAEALPAYVETLFSELALWGDRLGNATVETIFFGGGTPSLLPPHVVAAILDRVHRTFSVAPGAEISLEANPESLSNRQQARGLYDAGVNRLSLGVQALDDALLHLMGRPHRARDAIRAFNAARDAGFTNISLDFIWGLPGQRLRQWLDQLREVVRLRPEHLSCYGLTLEEGTPLTADVESGSIALPVEREQAAMFMQGAERLEEAGYLQYEISNFARMGFQCHHNLGYWEGRDYLGLGPSATSTIDGLRWTNPYDHGAWHESVRTGRIGADAERLDLTVRVLELVMLRLRTTRGLRVKAYRELTGRDFLRDHKPLVHLLHRNGLVRIRDGYLRLTRNGMLVSNSILERFFERSETLLTLESTEKTHETRMAGPISGDTP
MLMTLAATTSVSFNSKLLLFRIRCSDSNPKRGFGSKKEEKDPALQQRKSSSKQSVSVPRKAPGLNTQFEGKSGRSFDIDFDERLENIRRSALEQKKTEVVKEFGPIDYDAPVKSDQKTIGLGTKVGVGIAVVVFGLVFALGDFLPTGSDSPTKNTTVVKNQISEEEKATLQQRLKEFETTLNGTPQDQAALEGAAVTLTELGDYSRAAAFLEKLAKERPTDPDVFRLLGEVNYELNNYEGSIAAYKISEKVSKGIDLEVTRGLMNAYLAAKKPDEAVKFLLDTRERLNTKKTSTTDSVTDETNLDPIQVELLLGKAYSDWGHISDAIAVYDQLISAHPEDFRGYLAKGIILRENGSRGDAERMFIQARFFAPNKAKALVDRYSKL

Reference: a protein production outcome set (Wang et al. 2014)
